This note sets out measurements from patent EP3350599B1.

Assay [1] has as its target purified bone alkaline phosphatase from calf intestinal mucosa (AP; Santa Cruz sc-3716 - CAS9001-78-9) (calf) (UniProt P19111). Kind of assay: capture ELISA, coated antibody, AP calibrator at 12.5 ng/ml, bound enzyme read with pNPP. Background: In an ELISA, binding on a coated surface is turned into a signal by an enzyme label.
Assay [2] shares this target. Kind of assay: capture ELISA, coated antibody, AP calibrator at 25 ng/ml, bound enzyme read with pNPP.
Assay [3] has the same target. The assay can be described thus: capture ELISA, coated antibody, AP calibrator at 6.25 ng/ml, bound enzyme read with pNPP.
For assay [4] the target is unchanged. Kind of assay: capture ELISA, coated antibody, AP calibrator at 100 ng/ml, bound enzyme read with pNPP.
The target is the same in assay [5]. Kind of assay: capture ELISA, coated antibody, AP calibrator at 50 ng/ml, bound enzyme read with pNPP.
Assay [6] has the same target. The assay can be described thus: capture ELISA, coated antibody, AP calibrator at 3.125 ng/ml, bound enzyme read with pNPP.

Chain of UniProt P19111 (P19111 20-506): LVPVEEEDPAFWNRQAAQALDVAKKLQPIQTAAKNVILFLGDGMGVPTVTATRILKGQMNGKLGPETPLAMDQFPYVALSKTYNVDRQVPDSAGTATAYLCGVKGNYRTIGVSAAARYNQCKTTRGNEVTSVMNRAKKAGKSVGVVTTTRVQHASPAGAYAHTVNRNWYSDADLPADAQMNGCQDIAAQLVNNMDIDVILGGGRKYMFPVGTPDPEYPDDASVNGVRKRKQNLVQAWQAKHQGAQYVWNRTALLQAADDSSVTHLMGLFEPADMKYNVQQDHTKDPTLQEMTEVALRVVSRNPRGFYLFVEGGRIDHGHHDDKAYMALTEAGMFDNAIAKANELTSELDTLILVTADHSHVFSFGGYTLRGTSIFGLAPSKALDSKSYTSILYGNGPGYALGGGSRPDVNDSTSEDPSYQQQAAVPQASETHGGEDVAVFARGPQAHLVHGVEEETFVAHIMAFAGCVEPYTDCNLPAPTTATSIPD

For “anti-BAP polyclonal IgG antibody (produced in sheep) specific for bone alkaline phosphatase (Abcam Ab68716)”, the Abs. 415 nm, Abs. (1) was 0.186 Abs. 415 nm in assay [1]; 0.345 Abs. 415 nm in assay [2]; 0.11 Abs. 415 nm in assay [3]; 1.09 Abs. 415 nm in assay [4]; 0.628 Abs. 415 nm in assay [5]; 0.054 Abs. 415 nm in assay [6]. Further, the Abs. 415 nm, Abs. (2) in assay [1] was 0.156 Abs. 415 nm; in assay [2], 0.272 Abs. 415 nm; in assay [3] it was 0.098 Abs. 415 nm; in assay [4] it was 1.03 Abs. 415 nm; in assay [5] it was 0.501 Abs. 415 nm; in assay [6], 0.05 Abs. 415 nm. Also, the Abs. 415 nm, Abs. (3) in assay [1] was 0.161 Abs. 415 nm; in assay [2], 0.294 Abs. 415 nm; in assay [3] it was 0.089 Abs. 415 nm; in assay [4] it was 1.12 Abs. 415 nm; in assay [5] it was 0.476 Abs. 415 nm; in assay [6], 0.066 Abs. 415 nm. Also, the Mean Abs. 415 nm is 0.168 Abs. 415 nm in assay [1]; 0.304 Abs. 415 nm in assay [2]; 0.099 Abs. 415 nm in assay [3]; 1.08 Abs. 415 nm in assay [4]; 0.535 Abs. 415 nm in assay [5]; 0.057 Abs. 415 nm in assay [6].
